Experimental data reported in PMC6800183 (Journal of biological inorganic chemistry : JBIC : a …, 2019).
Positions count from the first letter of the chain named. In names and notes the source's numbering stands. Each block holds one molecule with its values, some of them ahead of it.

How the values were obtained:
[1] = biological target: T1, [2Fe-2S]-Grx3-Bol2 heterodimer (Saccharomyces cerevisiae, UniProt P53082+Q03835); experiment: Bradford, iron and acid-labile sulfide analysis; assay type: binding; details: cluster bridges Grx3 and Bol2; pH 8.0, 1 mM GSH, anaerobic
T1 sequence (Q03835 1-250): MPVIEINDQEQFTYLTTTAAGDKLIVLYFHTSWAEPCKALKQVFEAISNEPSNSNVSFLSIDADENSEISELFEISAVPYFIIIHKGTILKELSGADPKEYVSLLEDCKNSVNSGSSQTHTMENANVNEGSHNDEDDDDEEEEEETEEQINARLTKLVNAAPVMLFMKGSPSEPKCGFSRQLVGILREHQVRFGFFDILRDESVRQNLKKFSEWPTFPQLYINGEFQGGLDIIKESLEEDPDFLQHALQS
T1 sequence (P53082 1-120): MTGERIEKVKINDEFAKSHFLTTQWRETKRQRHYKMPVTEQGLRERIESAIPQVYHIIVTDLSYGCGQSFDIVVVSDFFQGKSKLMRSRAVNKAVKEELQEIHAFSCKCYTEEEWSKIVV

Grx3 = biological target: T2, Grx3 (S. cerevisiae, UniProt Q03835 1-250); experiment: SEC
T2 sequence (looked up): T1 sequence (Q03835 1-250)

[2] = biological target: T3, [2Fe-2S]-Grx3-Bol2 heterodimer (S. cerevisiae, UniProt Q03835 1-250; P53082 1-120); experiment: heparin chromatography co-elution
T3 sequence (looked up) 1: T1 sequence (Q03835 1-250)
T3 sequence (looked up) 2: T1 sequence (P53082 1-120)

Molecule: [2Fe-2S] cluster
[2Fe-2S] cluster per heterodimer [1]: 0.9–1.05 per heterodimer

binding result (Grx3): binds
B1: Bol2 (natural protein, S. cerevisiae, UniProt P53082 1-120, looked up)
chain: T1 sequence (P53082 1-120)

binding result [2]: binds
B2: Aft2(1–204) C187A (domain or fragment, S. cerevisiae, UniProt Q08957 1-204, looked up)
chain: MKAKSMKSIISVPISVSKTGKMKLTASPDNLASMMSKDQNKLIHLDPVPSFEDRHEIKPWLQKIFYPQGIDIVIERSDSSKVTFKCRSVRSKVGLNPKSKGSSSRSHACPFRIRAAYSVRLQKWNVVVMNNIHSHELRFDLITKTDDYKKFKENLRQKNDEKAIKTFDELEYKASLNLPLVTPIISADCGLTKEIEAFNNIFLP

binding result [2]: binds
B3: Aft2(1–204) C189A (domain or fragment, S. cerevisiae, UniProt Q08957 1-204, looked up)
chain: B2 chain with A187C, C189A
